The values that follow come from US20200317769A1.

In this assay the target is soluble cynomolgus monkey TNF-alpha (cynomolgus monkey) (UniProt P79337). The assay is described as follows: cell-based or functional assay.
Sequence of soluble cynomolgus monkey TNF-alpha (cynomolgus monkey) (P79337 77-233 limits assumed): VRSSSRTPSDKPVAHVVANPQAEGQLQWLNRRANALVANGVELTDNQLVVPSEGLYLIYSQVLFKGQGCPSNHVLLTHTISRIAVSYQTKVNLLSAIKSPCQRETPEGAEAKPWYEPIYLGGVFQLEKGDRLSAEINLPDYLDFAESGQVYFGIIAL

adalimumab (antibody) had an Inhibition of cynomolgus TNF-induced L929 cell cytotoxicity EC50 of 0.04 nM.
